Data reported in the RNAGym collection of RNA variant scans (doi:10.1073/pnas.2313332121).
Variants at the floor of the assay were thinned out.

B1: TPR 5TU (parent)
chain: GGAUCUUCUCGAUCUAACAAAAAAGACAAAUCUGCCACAAAGCUUGAGAGCAUCUUCGGAUGCAGAGGCGGCAGCCUUCGGUGGCGCGAUAGCGCCAACGUUCUCAACUAUGACACGCAAAACGCGUGCUCCGUUGAAUGGAGUUUAUCAUG

Variants of: B1
Experiment: polymerase ribozyme fitness, log enrichment relative to wild type (log ratio); higher = more active; in vitro selection for triplet polymerase activity
In short: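 A single round of triplicate in vitro selection, including frozen incubation at −7 °C, was applied to PCR-built, transcribed mutant libraries of each subunit of a heterodimeric triplet polymerase ribozyme. Illumina sequencing of input and output libraries retained genotypes with ≥10 input reads and ≥1 read per output. Fitness is the base-2 logarithm of genotype enrichment divided by wild-type enrichment, from inverse-variance-weighted replicate averages.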
For GGAUCUUCUCGAUCUAACAAAAAAGACAAAUCUGCCACAAAGCUUGAGAGCAUCUUCGGAUGCAGAGGCGGCAGCCUUCGGUGGCGCGAUAGCACCAACGUUCUCAACUAUGACACGCAAAACGCGUGCUCCGUUGUAUGGAGUUUAUCAUG [G94A A137U], the “polymerase ribozyme fitness (log ratio)” value was -3.87. For GGAUCUUCUCGAUCUAACAAAAAAGACAAAUCUGCCACAAAGCUUGAGAGCAUCUUCGGAUGCAGAGGCGGCAGCCUUCGGUGGCGCGAUAGCACCAACGUUCUCAACUAUGACACGCAAAACGCGUGCUCGGUUGAAUGGAGUUUAUCAUG [G94A C132G], the “polymerase ribozyme fitness (log ratio)” value was -3.64. In the case of GGAUCUUCUCGAUCUAACAAAAAAGACAAAUCUGCCACAAAGCUUGAGAGCAUCUUCGGAUGCAGAGGCGGCAGCCUUCGGUGGCGCGAUAGCACCGACGUUCUCAACUAUGACACGCAAAACACGUGCUCCGUUGAAUGGAGUUUAUCAUG [G94A A97G G124A], the “polymerase ribozyme fitness (log ratio)” value is reported as -1.65. For GGAUCUUCUCGAUCUAACAAAAAAGACAAAUCUGCCACAAAGCUUGAGAGCAUCUUCGGAUGCAGAGGCGGCAGCCUUCGGUGGCGCGAUAGCACCAACGUUCUCAACUAUGACACGCAAAACGCGUGCUCCGUUGAAUGGACUUUAUCAUG [G94A G143C], the “polymerase ribozyme fitness (log ratio)” value was -2.41. For GGAUCUUCUCGAUCUAACAAAAAAGACAAAUCUGCCACAAAGCUUGAGAGCAUCUUCGGAUGCAGAGGCGGCAGCCUUCGGUGGCGCGAUAGCACCAACGUUCUCAACUAUGACUCGCAAAACGUGUGCUCUGUUGAAUGGAGUUUUUCAUG [G94A A115U C125U C132U A147U], the “polymerase ribozyme fitness (log ratio)” value was at most -4.2. With GGAUCUUCUCGAUCUAACAAAAAAGACAAAUCUGCCACAAAGCUUGAGAGCAUCUUCGGAUGCAGAGGCGGCAGCCUUCGGUGGCGCGAUAGCACCAACGUUCUCAACUAUGACACGCAAAACACGUGCUCCGUUGAAUGGAGUUAAUCAUG [G94A G124A U146A] the “polymerase ribozyme fitness (log ratio)” value was -1.09. With GGAUCUUCUCGAUCUAACAAAAAAGACAAAUCUGCCACAAAGCUUGAGAGCAUCUUCGGAUGCAGAGGCGGCAGCCUUCGGUGGCGCGAUAGCACCAACGUUCUCAACUAUGACACGCAAAACGCGUGCUCCGUUGAAUAGAGUUUAUCAUG [G94A G140A] the “polymerase ribozyme fitness (log ratio)” value was -3.51. In the case of GGAUCUUCUCGAUCUAACAAAAAAGACAAAUCUGCCACAAAGCUUGAGAGCAUCUUCGGAUGCAGAGGCGGCAGCCUUCGGUGGCGCGAUAGCACCAACGUUCUCAACUAUGACACGCAAAACGCGUGCUCCGUUAAAUGGAGUUUAUCAUG [G94A G136A], the “polymerase ribozyme fitness (log ratio)” value is reported as -0.0776. For GGAUCUUCUCGAUCUAACAAAAAAGACAAAUCUGCCACAAAGCUUGAGAGCAUCUUCGGAUGCAGAGGCGGCAGCCUUCGGUGGCGCGAUAGCACCAACGUUCUCAACUAUGACACGCAAAACGCGUGCUCCGUUUAAUGGAGUUUAUCAUG [G94A G136U], the “polymerase ribozyme fitness (log ratio)” value was -2.56. In the case of GGAUCUUCUCGAUCUAACAAAAAAGACAAAUCUGCCACAAAGCUUGAGAGCAUCUUCGGAUGCAGAGGCGGCAGCCUUCGGUGGCGCGAUAGUGCCAACGUUCACAACUAUGACACGCAAAACGCGUGCUCCGUUGAAUGGAGUUUAUCAUG [C93U U104A], the “polymerase ribozyme fitness (log ratio)” value is reported as -1.88. With GGAUCUUCUCGAUCUAACAAAAAAGACAAAUCUGCCACAAAGCUUGAGAGCAUCUUCGGAUGCAGAGGCGGCAGCCUUCGGUGGCGCGAUAGUGCCAACGUUCUCAACGAUGACACGCAAAACGCGUGCUCCGUUGAAUGGAGGUUAUCAUG [C93U U109G U144G] the “polymerase ribozyme fitness (log ratio)” value was -1.39. With GGAUCUUCUCGAUCUAACAAAAAAGACAAAUCUGCCACAAAGCUUGAGAGCAUCUUCGGAUGCAGAGGCGGCAGCCUUCGGUGGCGCGAUAGCACCAACGUUCUCAACUAUGACACGGAAAACGCGUGCUCCGUUGAAUGGAGUUUAUCAUG [G94A C118G] the “polymerase ribozyme fitness (log ratio)” value was -1.61. With GGAUCUUCUCGAUCUAACAAAAAAGACAAAUCUGCCACAAAGCUUGAGAGCAUCUUCGGAUGCAGAGGCGGCAGCCUUCGGUGGCGCGAUAGCACCAACGUUCUCAACUAUGACACGAAAAACGCGUGCUCCGUUGAAUGGAGUUUAUCAUG [G94A C118A] the “polymerase ribozyme fitness (log ratio)” value was -0.879. In the case of GGAUCUUCUCGAUCUAACAAAAAAGACAAAUCUGCCACAAAGCUUGAGAGCAUCUUCGGAUGCAGAGGCGGCAGCCUUCGGUGGCGCGAUAGUGCCAACGUUCUCAACUAUGACACGCAAAACGCGUGCUCCGUUGAAUGGAGUUUAGCAUG [C93U U148G], the “polymerase ribozyme fitness (log ratio)” value is reported as -3.7. In the case of GGAUCUUCUCGAUCUAACAAAAAAGACAAAUCUGCCACAAAGCUUGAGAGCAUCUUCGGAUGCAGAGGCGGCAGCCUUCGGUGGCGCGAUAGCACCAACGUUCUCAACUAUGACACGCCAAACGCGUGCUCGGUUGAUUGGAGUUUAUCAUG [G94A A119C C132G A138U], the “polymerase ribozyme fitness (log ratio)” value is reported as at most -4.2. With GGAUCUUCUCGAUCUAACAAAAAAGACAAAUCUGCCACAAAGCUUGAGAGCAUCUUCGGAUGCAGAGGCGGCAGCCUUCGGUGGCGCGAUAGCACCAACGUUCUCAACUAUGACAUGCAAAUCGCGUGCUCCGUUGAAUGGAGUUUAUCAUG [G94A C116U A122U] the “polymerase ribozyme fitness (log ratio)” value was -0.787. In the case of GGAUCUUCUCGAUCUAACAAAAAAGACAAAUCUGCCACAAAGCUUGAGAGCAUCUUCGGAUGCAGAGGCGGCAGCCUUCGGUGGCGCGAUAGCACCAACGUUCUCAACUAUGACACGCAAUACGCGUGCUCGGUUGAAUGGAGUUAAUCGUG [G94A A121U C132G U146A A150G], the “polymerase ribozyme fitness (log ratio)” value is reported as at most -4.2. With GGAUCUUCUCGAUCUAACAAAAAAGACAAAUCUGCCACAAAGCUUGAGAGCAUCUUCGGAUGCAGAGGCGGCAGCCUUCGGUGGCGCGAUAGCACCAACGUUCUGAACUAUGACACGCAAAACGCGUGCUCCGUUGAAUGGAGUUUAUCAUG [G94A C105G] the “polymerase ribozyme fitness (log ratio)” value was -1.68. For GGAUCUUCUCGAUCUAACAAAAAAGACAAAUCUGCCACAAAGCUUGAGAGCAUCUUCGGAUGCAGAGGCGGCAGCCUUCGGUGGCGCGAUAGCACCAACGUUCUCAACUAUGACACGCAAAACGUGUGCUCCGUUGAAUGGAGUUUAUCAUG [G94A C125U], the “polymerase ribozyme fitness (log ratio)” value was -1.67.
